The target of this assay is TNF-α (UniProt P01375). The experiment in a line: cell-based or functional assay.

From US20210177983A1 come the findings set out here.

UniProt P01375, sequence (P01375 77-233 limits assumed): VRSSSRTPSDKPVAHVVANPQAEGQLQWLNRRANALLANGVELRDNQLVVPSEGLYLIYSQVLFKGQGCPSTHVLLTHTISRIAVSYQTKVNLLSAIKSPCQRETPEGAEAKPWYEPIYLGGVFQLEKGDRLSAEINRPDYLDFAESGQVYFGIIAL

On to TNF-R2 scCLCH1-Fc (Fc fusion), for which the IC50 of inhibition of activation of the SEAP reporter gene in HEK-Blue TNF-α cells (235 pM TNF-α) turned out to be 51 pM.
